Laboratory results taken from patent US20160200782A1 (MOERAE MATRIX, published 2016).

T1: Fms(h) (human, UniProt P07333 538-972, limits assumed)
T1 sequence (looked up): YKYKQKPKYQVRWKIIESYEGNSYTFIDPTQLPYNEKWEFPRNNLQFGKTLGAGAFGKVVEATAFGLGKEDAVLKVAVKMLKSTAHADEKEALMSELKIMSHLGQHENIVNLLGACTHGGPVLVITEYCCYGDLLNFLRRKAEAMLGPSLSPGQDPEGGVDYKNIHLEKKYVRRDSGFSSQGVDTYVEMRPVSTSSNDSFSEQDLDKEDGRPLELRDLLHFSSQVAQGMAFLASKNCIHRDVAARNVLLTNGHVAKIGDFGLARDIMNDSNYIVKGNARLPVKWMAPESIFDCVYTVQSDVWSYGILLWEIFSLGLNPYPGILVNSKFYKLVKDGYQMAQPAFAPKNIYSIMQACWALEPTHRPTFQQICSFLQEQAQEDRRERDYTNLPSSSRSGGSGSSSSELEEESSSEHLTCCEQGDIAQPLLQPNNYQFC

T2: NLK(h) (human, UniProt Q9UBE8 1-527, limits assumed)
T2 sequence (looked up): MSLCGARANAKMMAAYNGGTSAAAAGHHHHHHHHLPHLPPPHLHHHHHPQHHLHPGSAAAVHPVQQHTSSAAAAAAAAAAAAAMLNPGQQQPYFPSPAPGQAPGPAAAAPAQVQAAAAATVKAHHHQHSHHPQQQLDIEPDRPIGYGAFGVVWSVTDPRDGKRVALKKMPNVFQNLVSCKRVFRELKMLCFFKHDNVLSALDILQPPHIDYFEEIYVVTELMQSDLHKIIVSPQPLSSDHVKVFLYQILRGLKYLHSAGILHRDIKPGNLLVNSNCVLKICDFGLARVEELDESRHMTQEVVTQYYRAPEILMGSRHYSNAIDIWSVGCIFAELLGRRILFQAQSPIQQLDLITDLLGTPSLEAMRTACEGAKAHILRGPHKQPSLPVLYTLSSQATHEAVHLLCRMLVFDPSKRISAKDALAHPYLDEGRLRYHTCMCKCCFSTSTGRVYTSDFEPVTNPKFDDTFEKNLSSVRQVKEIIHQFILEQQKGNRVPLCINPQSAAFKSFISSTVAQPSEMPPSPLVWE

T3: PRAK(h) (human, UniProt Q8IW41 1-473, limits assumed)
T3 sequence (looked up): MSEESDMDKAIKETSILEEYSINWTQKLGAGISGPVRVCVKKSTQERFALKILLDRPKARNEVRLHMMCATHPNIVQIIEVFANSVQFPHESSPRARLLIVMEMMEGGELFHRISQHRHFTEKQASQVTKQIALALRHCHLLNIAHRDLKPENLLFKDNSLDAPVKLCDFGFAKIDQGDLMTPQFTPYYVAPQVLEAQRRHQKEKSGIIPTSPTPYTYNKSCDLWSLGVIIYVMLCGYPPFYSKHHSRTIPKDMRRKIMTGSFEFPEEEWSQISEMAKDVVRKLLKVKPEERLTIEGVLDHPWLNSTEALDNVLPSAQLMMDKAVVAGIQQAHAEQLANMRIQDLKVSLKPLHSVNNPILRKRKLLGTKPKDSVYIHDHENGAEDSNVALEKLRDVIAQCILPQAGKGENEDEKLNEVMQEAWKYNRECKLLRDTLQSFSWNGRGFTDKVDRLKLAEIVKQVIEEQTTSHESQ

T4: BrSK1(h) (human, UniProt Q8TDC3 1-778, limits assumed)
T4 sequence (looked up): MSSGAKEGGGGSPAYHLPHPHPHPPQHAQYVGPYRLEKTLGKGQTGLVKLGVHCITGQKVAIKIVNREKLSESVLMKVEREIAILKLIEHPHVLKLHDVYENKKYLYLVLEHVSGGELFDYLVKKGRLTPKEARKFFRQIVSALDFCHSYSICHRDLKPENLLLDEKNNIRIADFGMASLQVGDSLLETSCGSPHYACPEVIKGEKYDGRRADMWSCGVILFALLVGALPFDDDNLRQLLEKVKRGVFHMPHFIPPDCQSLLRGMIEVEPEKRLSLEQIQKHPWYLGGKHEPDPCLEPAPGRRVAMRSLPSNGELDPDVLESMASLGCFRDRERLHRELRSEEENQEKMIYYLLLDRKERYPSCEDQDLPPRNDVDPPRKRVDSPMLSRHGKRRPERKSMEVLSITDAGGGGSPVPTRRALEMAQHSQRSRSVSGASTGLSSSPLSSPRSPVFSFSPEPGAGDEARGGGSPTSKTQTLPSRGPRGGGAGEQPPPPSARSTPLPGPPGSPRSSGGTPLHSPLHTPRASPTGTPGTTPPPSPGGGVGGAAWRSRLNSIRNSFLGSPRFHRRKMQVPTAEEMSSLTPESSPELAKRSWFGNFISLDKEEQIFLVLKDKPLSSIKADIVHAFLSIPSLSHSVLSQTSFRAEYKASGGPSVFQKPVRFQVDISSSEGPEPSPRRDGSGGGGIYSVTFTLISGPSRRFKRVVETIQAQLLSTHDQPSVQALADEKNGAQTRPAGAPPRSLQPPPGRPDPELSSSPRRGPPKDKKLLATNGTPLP


Tests used:
Assay in all cases: cell-based or functional assay
Fms(h) = molecular target: T1, Fms(h)
JAK2(h) = JAK2(h) (human, UniProt O60674 808-1132, limits assumed)
Sequence of JAK2(h) (O60674 808-1132 limits assumed): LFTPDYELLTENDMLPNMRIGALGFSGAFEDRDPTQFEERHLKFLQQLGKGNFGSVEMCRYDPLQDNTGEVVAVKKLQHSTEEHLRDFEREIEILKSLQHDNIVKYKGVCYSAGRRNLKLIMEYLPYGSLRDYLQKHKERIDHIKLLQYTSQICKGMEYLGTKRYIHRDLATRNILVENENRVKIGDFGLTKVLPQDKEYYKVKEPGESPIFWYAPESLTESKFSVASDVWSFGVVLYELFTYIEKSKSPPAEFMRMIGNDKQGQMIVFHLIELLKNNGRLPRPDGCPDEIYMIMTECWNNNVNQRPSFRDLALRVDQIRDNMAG

ALK(h) = ALK(h) (human, UniProt Q9UM73 1058-1620, limits assumed)
Sequence of ALK(h) (Q9UM73 1058-1620 limits assumed): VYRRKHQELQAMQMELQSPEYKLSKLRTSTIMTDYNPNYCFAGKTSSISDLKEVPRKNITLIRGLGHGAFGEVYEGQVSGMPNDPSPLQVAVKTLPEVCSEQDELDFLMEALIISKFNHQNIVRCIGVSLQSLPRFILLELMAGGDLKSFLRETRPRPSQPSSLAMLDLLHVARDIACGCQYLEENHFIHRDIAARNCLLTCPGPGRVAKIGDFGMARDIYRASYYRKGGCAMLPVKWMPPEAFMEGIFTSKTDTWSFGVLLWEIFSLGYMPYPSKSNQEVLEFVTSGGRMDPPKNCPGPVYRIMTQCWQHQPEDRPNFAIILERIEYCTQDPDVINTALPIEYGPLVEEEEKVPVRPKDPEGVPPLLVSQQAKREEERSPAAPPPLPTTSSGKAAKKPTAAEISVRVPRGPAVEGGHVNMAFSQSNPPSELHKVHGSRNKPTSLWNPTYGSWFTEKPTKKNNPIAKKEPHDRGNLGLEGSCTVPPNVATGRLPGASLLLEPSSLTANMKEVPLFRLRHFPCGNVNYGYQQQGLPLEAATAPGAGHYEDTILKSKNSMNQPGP

Lyn(h) = Lyn(h) (human, UniProt P07948 1-512, limits assumed)
Sequence of Lyn(h) (P07948 whole entry): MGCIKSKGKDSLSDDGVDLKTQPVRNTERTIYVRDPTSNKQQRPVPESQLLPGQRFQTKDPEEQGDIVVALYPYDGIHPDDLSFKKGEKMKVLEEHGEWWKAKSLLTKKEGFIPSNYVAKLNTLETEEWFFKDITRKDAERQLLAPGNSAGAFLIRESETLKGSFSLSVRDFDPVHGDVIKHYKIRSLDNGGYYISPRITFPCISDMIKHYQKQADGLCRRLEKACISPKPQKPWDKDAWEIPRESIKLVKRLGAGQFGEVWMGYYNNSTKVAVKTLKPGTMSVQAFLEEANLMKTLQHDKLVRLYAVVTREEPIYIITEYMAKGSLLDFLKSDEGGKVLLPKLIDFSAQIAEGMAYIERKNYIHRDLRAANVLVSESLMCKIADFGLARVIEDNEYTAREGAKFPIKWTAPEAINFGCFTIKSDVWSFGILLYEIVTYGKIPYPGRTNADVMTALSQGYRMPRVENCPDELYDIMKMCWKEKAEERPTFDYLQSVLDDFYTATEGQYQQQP

MST3(h) = MST3(h) (human, UniProt Q9Y6E0 1-443, limits assumed)
Sequence of MST3(h) (Q9Y6E0 whole entry): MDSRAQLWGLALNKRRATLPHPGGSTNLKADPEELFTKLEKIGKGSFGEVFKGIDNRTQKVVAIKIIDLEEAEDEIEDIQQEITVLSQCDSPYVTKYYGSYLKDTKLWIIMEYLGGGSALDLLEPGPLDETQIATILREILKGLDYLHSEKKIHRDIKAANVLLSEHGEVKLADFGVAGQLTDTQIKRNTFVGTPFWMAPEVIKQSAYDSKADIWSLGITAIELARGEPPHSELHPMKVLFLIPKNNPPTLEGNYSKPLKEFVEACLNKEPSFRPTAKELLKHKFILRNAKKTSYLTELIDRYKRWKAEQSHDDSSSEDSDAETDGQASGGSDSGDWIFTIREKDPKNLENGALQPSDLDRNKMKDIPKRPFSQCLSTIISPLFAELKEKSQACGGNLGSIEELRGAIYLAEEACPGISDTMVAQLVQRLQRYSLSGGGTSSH

NLK(h) = molecular target: T2, NLK(h)
PRAK(h) = molecular target: T3, PRAK(h)
BrSK1(h) = molecular target: T4, BrSK1(h)
CaMKI(h) = CaMKI(h) (human, UniProt Q14012 1-370, limits assumed)
Sequence of CaMKI(h) (Q14012 whole entry): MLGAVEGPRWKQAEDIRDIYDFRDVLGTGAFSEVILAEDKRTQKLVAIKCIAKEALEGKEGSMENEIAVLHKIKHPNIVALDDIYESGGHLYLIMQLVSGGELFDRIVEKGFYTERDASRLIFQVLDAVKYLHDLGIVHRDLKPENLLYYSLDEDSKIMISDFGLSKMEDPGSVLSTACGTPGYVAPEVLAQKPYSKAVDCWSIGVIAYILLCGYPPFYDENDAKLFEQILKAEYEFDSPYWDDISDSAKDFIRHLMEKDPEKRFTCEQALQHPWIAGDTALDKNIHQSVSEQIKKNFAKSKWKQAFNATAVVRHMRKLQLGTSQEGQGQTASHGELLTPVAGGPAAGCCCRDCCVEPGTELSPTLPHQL

CDK6/cyclinD3(h) = CDK6/cyclinD3(h) (human, UniProt Q00534 1-326; P30281 1-292)
Sequence of CDK6/cyclinD3(h) (Q00534 whole entry, chain 1 of 2): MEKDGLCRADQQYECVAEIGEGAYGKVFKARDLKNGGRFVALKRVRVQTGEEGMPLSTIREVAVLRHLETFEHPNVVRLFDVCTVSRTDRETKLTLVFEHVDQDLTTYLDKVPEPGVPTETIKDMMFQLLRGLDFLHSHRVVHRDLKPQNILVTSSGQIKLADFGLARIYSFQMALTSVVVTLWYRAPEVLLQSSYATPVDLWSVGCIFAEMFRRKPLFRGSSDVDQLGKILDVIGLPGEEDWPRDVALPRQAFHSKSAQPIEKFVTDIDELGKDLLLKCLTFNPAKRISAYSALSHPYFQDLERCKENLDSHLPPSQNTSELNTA
Sequence of CDK6/cyclinD3(h) (P30281 whole entry, chain 2 of 2): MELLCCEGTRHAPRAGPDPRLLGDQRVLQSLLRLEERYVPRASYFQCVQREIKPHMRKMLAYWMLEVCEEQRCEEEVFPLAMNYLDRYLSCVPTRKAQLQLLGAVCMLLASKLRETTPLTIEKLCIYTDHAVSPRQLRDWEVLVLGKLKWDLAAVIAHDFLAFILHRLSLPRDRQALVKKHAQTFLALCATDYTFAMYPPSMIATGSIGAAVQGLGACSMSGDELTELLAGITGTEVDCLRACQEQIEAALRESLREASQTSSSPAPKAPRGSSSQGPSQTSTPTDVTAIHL

CDK7/cyclinH/MAT1(h) = CDK7/cyclinH/MAT1(h) (human, UniProt P50613 1-346; P51946 1-323; P51948 1-309)
Sequence of CDK7/cyclinH/MAT1(h) (P50613 whole entry, chain 1 of 3): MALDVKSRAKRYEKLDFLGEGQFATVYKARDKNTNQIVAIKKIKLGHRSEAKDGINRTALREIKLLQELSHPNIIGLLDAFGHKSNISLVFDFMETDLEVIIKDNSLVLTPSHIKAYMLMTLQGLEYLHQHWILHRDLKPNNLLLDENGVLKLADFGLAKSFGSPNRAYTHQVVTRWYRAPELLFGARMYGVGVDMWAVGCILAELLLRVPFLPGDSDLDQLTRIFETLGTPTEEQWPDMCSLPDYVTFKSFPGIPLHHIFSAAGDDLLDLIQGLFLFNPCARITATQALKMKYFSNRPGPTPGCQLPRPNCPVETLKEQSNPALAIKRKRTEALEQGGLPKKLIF
Sequence of CDK7/cyclinH/MAT1(h) (P51946 whole entry, chain 2 of 3): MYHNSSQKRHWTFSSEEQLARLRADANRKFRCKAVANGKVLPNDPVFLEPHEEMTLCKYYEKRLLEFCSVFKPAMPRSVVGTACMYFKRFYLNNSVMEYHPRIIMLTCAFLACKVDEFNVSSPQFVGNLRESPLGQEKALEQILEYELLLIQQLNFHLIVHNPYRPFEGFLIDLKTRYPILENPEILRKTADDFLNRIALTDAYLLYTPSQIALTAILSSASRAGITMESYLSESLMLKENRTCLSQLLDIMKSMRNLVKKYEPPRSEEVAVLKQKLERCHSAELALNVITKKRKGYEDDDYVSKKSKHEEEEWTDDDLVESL
Sequence of CDK7/cyclinH/MAT1(h) (P51948 whole entry, chain 3 of 3): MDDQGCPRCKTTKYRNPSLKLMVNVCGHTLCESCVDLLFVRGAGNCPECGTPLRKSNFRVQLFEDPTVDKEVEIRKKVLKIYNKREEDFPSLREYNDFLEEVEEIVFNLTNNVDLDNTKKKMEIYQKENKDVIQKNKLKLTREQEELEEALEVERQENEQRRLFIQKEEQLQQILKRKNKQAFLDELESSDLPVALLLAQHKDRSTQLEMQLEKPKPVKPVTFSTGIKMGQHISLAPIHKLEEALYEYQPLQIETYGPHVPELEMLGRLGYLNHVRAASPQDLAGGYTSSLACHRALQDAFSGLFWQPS

cKit(D816V)(h) = cKit(D816V)(h) (human, UniProt P10721 544-976, limits assumed)
Sequence of cKit(D816V)(h) (P10721 544-976 D816V limits assumed): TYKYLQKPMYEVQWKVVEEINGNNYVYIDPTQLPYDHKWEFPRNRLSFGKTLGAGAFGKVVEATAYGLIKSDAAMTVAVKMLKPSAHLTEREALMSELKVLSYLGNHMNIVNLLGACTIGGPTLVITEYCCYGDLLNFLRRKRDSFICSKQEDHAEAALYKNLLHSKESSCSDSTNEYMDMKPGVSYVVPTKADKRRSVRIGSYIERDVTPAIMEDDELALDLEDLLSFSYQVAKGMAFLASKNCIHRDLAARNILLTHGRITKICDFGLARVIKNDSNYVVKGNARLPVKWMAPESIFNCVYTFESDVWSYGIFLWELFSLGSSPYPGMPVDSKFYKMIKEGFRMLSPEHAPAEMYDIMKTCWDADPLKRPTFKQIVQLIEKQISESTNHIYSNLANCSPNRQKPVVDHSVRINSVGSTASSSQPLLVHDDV

Binder	% activity (Fms(h)) [%]	% activity (JAK2(h)) [%]	% activity (ALK(h)) [%]	% activity (Lyn(h)) [%]	% activity (MST3(h)) [%]	% activity (NLK(h)) [%]	% activity (PRAK(h)) [%]	% activity (BrSK1(h)) [%]	% activity (CaMKI(h)) [%]	% activity (CDK6/cyclinD3(h)) [%]	% activity (CDK7/cyclinH/MAT1(h)) [%]	% activity (cKit(D816V)(h)) [%]
FAKLAARLYRKALARQLGVAA [MMI-0300]	45	133	19	69	45	87	128	67	1	86	65	60
KAFAKLAARLYRKALARQLGVAA [MMI-0400]	37	119	16	3	36	90	118	76	0	85	47	35
